From US20050084844A1 come the findings set out here.

“And” between values parts separate entries of the source, which are not always exact repeats. Equal entries are not always repeated.

Test [1] deals with active TGFβ generated by positive B9F clones (rat). Nature of the test: cell-based or functional assay.
The target in test [2] is endogenous latent TGFβ secreted by B9F cells (latent TGFβ1, 2 and 3) (rat). In words: cell-based or functional assay.

With “Recombinant simian TGFβ1 LAP (from UniProt P09533 30-278)”, the luciferase activity of TMLC co-culture with positive clones, with against without the TGFβ inhibitor (LAP) (fraction of the value without inhibitor) in test [1] was 0.33 and 0.5.
For “integrin ανβ6 on B9F reporter cells (retrovirally expressed β6-integrin subunit paired with the endogenously expressed αν-integrin subunit) (receptor)”, the rightward shift in GFP fluorescence of B9F reporter cells (percent of cells in the bright gate) in test [2] was 48%.
“integrin ανβ8 on B9F reporter cells (retrovirally expressed β8-integrin subunit paired with the endogenously expressed αν-integrin subunit) (receptor)”: the rightward shift in GFP fluorescence of B9F reporter cells (percent of cells in the bright gate) in test [2] was determined as 25%.
